Test results published in publication PMC3174981.

Biological target: HIV-1 Gag polyprotein (p6 region) (HIV-1 (NL4-3))

Substance: HIV-1 Vpr L22E (from UniProt P12520 1-96) (natural protein)
- % Vpr incorporation into virions relative to WT Vpr (western blot densitometry, Vpr band normalised to p24 CA): 20 % of WT
